The DeepSol protein solubility set

Assay: soluble on expression in E. coli; label from the status in PepcDB or PDB records

Row | Sequence | soluble on expression in E. coli
1 | MTVTNMTEWFAKGVEALHHDHVYLARACFEQAVTEQRSPLSSSYLALCQAKTRGTFSDAIASAREAVAADPANPALYHNLGCIYLLAGKRTEAIETFRQGLEHHHHHH | not soluble
2 | MSLTRRNDAIAVVVTEPQNRLFVDPFFDRHLRGIRQELVRQGAQLVLLLIEEPDDYPRVGNFLGGGHVDGALLFSLRGDDPLPEMVDRMGLPAVFGGRPVLSPEDRGHRYTYVDADNRGGAREAVRHLVAQGRERIATITGPLNQAAAVDRLDGYRDVLPDSAPDLIVEGDFTLRGGVDAMAELLARCPDLDAVFAASDLMACGALRVLKEHGRRVPEDVAVIGFDDLPPLVETTEPSLTTVHQDIEGMGRLMARLLFERIPATPLDDGDHSLHRVITPTRLILRKTAEGHHHHHH | not soluble
3 | MGSDKIHHHHHHMFDPETLRTFISVAETGSFSKAAERLCKTTATISYRIKLLEENTGVGLFFRTTRSVSLTAAGSHLLSQAKDWLAWLDSMPDELRQVNDGVERQVNIVVNNLLYSPQAVASLLSWLNARYPFTQFHFSRQIYMGVWDSLLYEGFSLAIGVTGTEPLANTFMLDPLGSVQWRFVMSADHPLAHVSGPLTEAQLRRFPAINIEDSARTLTKRVAWRLPGQKEIIVPDMETKIAAHLAGVGIGFVPQPLCQTLIDKNELVSCTIPTMRPPSPLSLAWHKFGGGKAVEDIVKLFTQRQPEIAGFLSIFNTVRC | not soluble
4 | MGSDKIHHHHHHMNTIHSCVLQIHLTIETKMADTKAIQQLDLNLLKIFEALYSEQNMTLASKSLFITPSAVSHAIKRLRLVLNDPLFVRQGLQMQPTAACQRMAPQLISALNRIRQVLQQCGEFDPLTTEQTFKIAIHEALESQIMPTLIKQVVKLIPHAKIASMSLSRENIARQLANGEVDLAIDVARAVNAPLAHKTLLSDPFCVLIDRRQHAMHLEPSTKLTPTDYANAEHVAVSSRPIGRVMEDILLQQQGVNRHIKYRCQSYQTAAKIVIGSPLMLTLPRSIAEQFIHPDLHVCTMPFELPDIDTHLYWHMNTETDPAFVWLRAQIEMAIIAE | not soluble
5 | GPGSMRGKRFATPTGQPGMRQGGYTQLHAVSASTSPGRRPTAKHCAPSASQKELFTSQALSRPRPTEAHALSSSTPERRFQAVQRSSTQSSMPSTSVHHMLNELVDLSHSIAALLEQGQVLSLTAAPSAADRQQEASLKTQEIERIVRRVEAHFVDRIQSLETLNASLSEEVRQLRGALATQRTNGAEGRANVVQDIRGGDLQEDSKTLDACERASWDEPGNGAASSEVEHLRRVLMAEKRQRLRVEEQTQSLTEQHAKVVGTLERRLKKQEEQLYDLIAAIDRGYGGGSVTTSASPTRCTERGSSHRLPTPRHLLRQQLAQHQQTQRALQQYKENLRLEPPSPAGSDEVSATMKELGLDDVRRTLELIRSSKPLTVQEHHHDQEETHTAPAVCSPPHTARDGPAVVHSPRVCSQVPPPAADRAACTSGTEVDEITAFLENITKELESLDSQ | soluble
6 | MGSDKIHHHHHHMDLVEEILRLKEERNAIILAHNYQLPEVQDIADFIGDSLELARRATRVDADVIVFAGVDFMAETAKILNPDKVVLIPSREATCAMANMLKVEHILEAKRKYPNAPVVLYVNSTAEAKAYADVTVTSANAVEVVKKLDSDVVIFGPDKNLAHYVAKMTGKKIIPVPSKGHCYVHQKFTLDDVERAKKLHPNAKLMIHPECIPEVQEKADIIASTGGMIKRACEWDEWVVFTEREMVYRLRKLYPQKKFYPAREDAFCIGMKAITLKNIYESLKDMKYKVEVPEEIARKARKAIERMLEMSK | not soluble
7 | STVELCGQWDTRTVAGGRYTVSNNVWGAETAQCIEVGLETGNFTITRAEHDNGNNVAAYPNIQFAIPQPRRVQELSDVRTSWTLTPITTGRWNAAYDIFFAANPNHVTYSGDAELMIWLNKNGDVMPIGSRVATVELAGATWEVWYADNGAMNVISYVRTTPTTSVTELDLKAFIDDAVARGYIRPEWYLLSVQTGFELFTGGAGLRSADFSVTVQ | soluble
8 | MLRLATPLRSGLLSSAIRRHSACCGGEHKMSEAELKMSKLLTEGIDGCTRVEVHDVSNGCGSMFDVVVEAAGFKGKSKVAQHKQVTSILREQIKDMHGLTIKTKAA | not soluble
9 | MGSDKIHHHHHHMKRRDFLITSAAALSFLLSGCAIGDRVVEEPLTPKSNPPRKSVVYVLKTERREEAVSKLMQNFSDFEGSTVGLKANYNSADPFPASTHPKTLSAIVDVLKEQKAEVFMAERSGMGNTSAVLKTMGILDLAREKGFTVIDLDSYDGWVLHQPEDSHWKKGYPFADIFLTVDSVIQTCCLKTHRFGGHFTMSLKNSVGMVARRWKGHDYMSELHTSPHMRKMIAEINVSYSPKIVIMDAIKGFSHGGPERGTVIEPGLMIASNDRVAIDAVGVAILRIHGTTPEVSKGSVFEQEQIARAIEIGLSSGEFEIIPANDDAEKICSEIEAVLWG | not soluble
10 | MIKQVIQQLRVPDAGIENLQERRYWLQCERAYTYQPIYQTDGRLMAVELLTVVTHPDNPSRRIAPDRYFAELAVRHRIDVVKEQLHQLEQKADFFTRHHLLASVNVDGPTLIAMRRQPDILAAMERLPWLRFELVEHIRLPKDSSFASMCEFGPLWLDDFGTGMANFSALSEVRYDYIKVARELFVMLRQSPEGRNLFTLLLQLMNRYCRGVIVEGVETLEEWRDVQRSPAFAAQGYFLSRPVPLISLEEVILTL | not soluble
11 | MNNVEKAIEALKKGEIILVYDSDEREGETDMVVASQFITPEHIRIMRKDAGGLICTALHPDICNKLGIPFMVDILEFASQKFKVLRELYPNDIPYDEKSSFSITINHRKTFTGITDNDRAFTIKKLAELVKEGRFNDFGKEFRSPGSVTLLRAAEGLVKNRQGHTEMTVALAELANLVPITTICEMMGDDGNAMSKNETKRYAEKHNLIYLSGEEIINYYLDKYLKD | soluble
12 | MGSDKIHHHHHHMNIQDYPDRDMLAIDLANHLAGELEATLFTHDSATLAVAGGTTPGPVFDVLCAADLDWHRVMVLPTDERCVPQDHSRANARLIAERLLVNRAASARYLPLYLPGAEPEDCLAEVEALLTPALPLSVLVLGMGEDMHTASLFAGMPGLAAALDADAPALAVARPETQPENRITLTAPVLNGALSKHLIIYGAAKRKALERAMSMHPEEAPIAAVLDGITVHWAE | not soluble
13 | MHEYELNQDLLAENKRLAEKNREALRESGTVAVNIMGAIGSGKTLLIERTIERIGNEVKIGAMLGDVVSKADYERVRRFGIKAEAISTGKECHLDAHMIYHRLKKFSDCDLLLIENVGNLICPVDFDLGENYRVVMVSVTEGDDVVEKHPEIFRVADLIVINKVALAEAVGADVEKMKADAKLINPRAKIIEMDLKTGKGFEEWIDFLRGILNVHSDSGQN | not soluble
14 | MGSDKIHHHHHHMSLQSLKINFAEWLLLKVKYPSQYWLGAADQPVKAAAHQKKIILTLLPSHDNLGDHAIAYASKAFLEQEYPDFDIVEVDMKDIYKSAKSLIRSRHPEDMVFIIGGGNMGDLYRYEEWTRRFIIKTFHDYRVVQLPATAHFSDTKKGRKELKRAQKIYNAHPGLLLMARDETTYQFMKQHFQEKTILKQPDMVLYLDRSKAPAEREGVYMCLREDQESVLQEEQRNRVKAALCEEFGEIKSFTTTIGRRVSRDTREHELEALWSKLQSAEAVVTDRLHGMIFCALTGTPCVVIRSFDHKVMEGYQWLKDIPFMKLIEHPEPERVTAAVNELLTKETSRAGFPRDVYFKGLRDKISGEAQ | not soluble
15 | MGSDKIHHHHHHCDDNDGYSLGDIAVDWATVRVVGGDTYSLNADRWGTLWPAATAIPFYKPIDGQRVITYFNPLYDNYEGYDHAVKVEHNYNVLTKQVEDLTAENESEFGNDPVWVNKDMMWIGGGYLNVIFRQNLPVKEKHLVSLVRDMRATAAEGEDDGYIHLELRYKTYDDVTARQANGAVSFNLNSLDLTGKKGIKVKLNSVKDGETEVVFNLKGQSMPEEAKQVTLSDEVQIK | not soluble
16 | MGRQGSLALLLSIILIGETIANEYDGLSSHQSHQSTVTSAPIHVSEQQTSRNRPYNQPQLQQKPSVLTQSYQVLPESRNYYQYPQYLPTHTGYSNIQTVGQPYQMYGSAPGSNVVSGGNSESYGYNQQAPVPTVAPAPVHFSERQRSYSAAPTPPSPFSETRERENNNVRAPGHHAPAQQGHRSPSPPPSPFMINPKPVLSYGAANPFLANLPPAQGVYGAPIDSSHRGYDGFSLSAPAPPSGSSASVDDTWEALEASLDANTRRRHRIF | not soluble
